Source: the supplement of paper PMC10065799, “High-throughput profiling of sequence recognition by tyrosine kinases and SH2 domains using bacterial peptide display” (eLife, 2023)

Key:
EPHB2 = EPHB2 (UniProt P29323); assay: phosphorylation enrichment, bacterial display (enrichment ratio); higher = better substrate or ligand; peptides without Tyr show the background
Fes = Fes (UniProt P07332); assay: as above
Fyn = Fyn (UniProt P06241); assay: as above
Jak2 = Jak2 (UniProt O60674); assay: as above
MERTK = MERTK (UniProt Q12866); assay: as above
FGFR3 = FGFR3 (UniProt P22607); assay: as above
Fer (mouse) = assay: as above
c-Abl (mouse) = assay: as above
FGFR1 = FGFR1 (UniProt P11362); assay: as above
AncSZ = assay: as above
c-Src = assay: as above
Hck = Hck (UniProt P08631); assay: as above
EPHB1 = EPHB1 (UniProt P54762); assay: as above
SHP2-C SH2 = assay: SH2 binding enrichment of the phosphorylated peptide, bacterial display (enrichment ratio); higher = better substrate or ligand; peptides without Tyr show the background
c-Src SH2 = assay: as above
Grb2 SH2 = Grb2 SH2 (UniProt P62993); assay: as above
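Wherever SH2 binding enrichment of the phosphorylated peptide, bacterial display is given: peptide library displayed on the E. coli surface as eCPX fusions, selected cells deep-sequenced, score is each peptide's frequency after selection divided by its frequency in the input.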
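Wherever phosphorylation enrichment, bacterial display is given: 11-residue human phosphosite peptides and single-mutation variants displayed on the E. coli surface, counted by deep sequencing, each peptide's frequency after selection divided by its frequency in the unselected input library; frequency after pTyr selection over input frequency; kinase dosed for 20-30% of maximal phosphorylation in three min.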

Sequence of Grb2 SH2 (P62993 whole entry, looked up, the tested form may be a part): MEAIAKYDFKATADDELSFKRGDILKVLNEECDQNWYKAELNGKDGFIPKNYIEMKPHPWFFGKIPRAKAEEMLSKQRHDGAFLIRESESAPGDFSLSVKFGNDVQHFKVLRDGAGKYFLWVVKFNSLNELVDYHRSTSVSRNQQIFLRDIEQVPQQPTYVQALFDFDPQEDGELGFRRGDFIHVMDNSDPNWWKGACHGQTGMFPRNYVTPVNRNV
Sequence of Jak2 (O60674 whole entry, looked up): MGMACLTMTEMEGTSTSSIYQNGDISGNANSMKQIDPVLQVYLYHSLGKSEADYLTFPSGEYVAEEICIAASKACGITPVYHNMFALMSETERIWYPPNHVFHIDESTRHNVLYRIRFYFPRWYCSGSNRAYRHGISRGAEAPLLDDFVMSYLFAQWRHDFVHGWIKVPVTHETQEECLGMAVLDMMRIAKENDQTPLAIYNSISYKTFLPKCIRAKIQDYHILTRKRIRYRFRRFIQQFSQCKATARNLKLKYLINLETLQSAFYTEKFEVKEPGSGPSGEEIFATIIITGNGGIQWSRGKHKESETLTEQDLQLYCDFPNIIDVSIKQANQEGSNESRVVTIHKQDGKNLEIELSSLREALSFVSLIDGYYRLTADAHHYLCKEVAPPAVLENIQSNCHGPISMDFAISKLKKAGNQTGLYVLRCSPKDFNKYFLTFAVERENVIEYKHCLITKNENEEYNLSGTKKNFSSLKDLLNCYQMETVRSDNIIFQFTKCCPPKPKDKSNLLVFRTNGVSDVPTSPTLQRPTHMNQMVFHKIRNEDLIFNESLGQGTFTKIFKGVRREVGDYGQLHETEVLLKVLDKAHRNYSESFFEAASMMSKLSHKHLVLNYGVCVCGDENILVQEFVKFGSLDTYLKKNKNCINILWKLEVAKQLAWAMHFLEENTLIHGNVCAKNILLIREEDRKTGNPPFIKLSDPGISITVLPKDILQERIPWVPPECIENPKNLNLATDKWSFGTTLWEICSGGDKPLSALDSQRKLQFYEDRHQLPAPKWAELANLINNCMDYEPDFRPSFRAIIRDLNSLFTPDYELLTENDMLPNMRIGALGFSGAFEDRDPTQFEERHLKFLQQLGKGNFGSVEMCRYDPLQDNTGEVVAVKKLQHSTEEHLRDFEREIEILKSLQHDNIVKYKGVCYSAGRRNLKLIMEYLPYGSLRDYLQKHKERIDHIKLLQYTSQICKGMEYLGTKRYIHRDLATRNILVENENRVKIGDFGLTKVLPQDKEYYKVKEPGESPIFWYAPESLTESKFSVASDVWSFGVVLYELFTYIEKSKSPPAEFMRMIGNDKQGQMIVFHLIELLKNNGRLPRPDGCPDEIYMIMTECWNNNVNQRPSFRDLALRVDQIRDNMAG
Sequence of Fes (P07332 whole entry, looked up): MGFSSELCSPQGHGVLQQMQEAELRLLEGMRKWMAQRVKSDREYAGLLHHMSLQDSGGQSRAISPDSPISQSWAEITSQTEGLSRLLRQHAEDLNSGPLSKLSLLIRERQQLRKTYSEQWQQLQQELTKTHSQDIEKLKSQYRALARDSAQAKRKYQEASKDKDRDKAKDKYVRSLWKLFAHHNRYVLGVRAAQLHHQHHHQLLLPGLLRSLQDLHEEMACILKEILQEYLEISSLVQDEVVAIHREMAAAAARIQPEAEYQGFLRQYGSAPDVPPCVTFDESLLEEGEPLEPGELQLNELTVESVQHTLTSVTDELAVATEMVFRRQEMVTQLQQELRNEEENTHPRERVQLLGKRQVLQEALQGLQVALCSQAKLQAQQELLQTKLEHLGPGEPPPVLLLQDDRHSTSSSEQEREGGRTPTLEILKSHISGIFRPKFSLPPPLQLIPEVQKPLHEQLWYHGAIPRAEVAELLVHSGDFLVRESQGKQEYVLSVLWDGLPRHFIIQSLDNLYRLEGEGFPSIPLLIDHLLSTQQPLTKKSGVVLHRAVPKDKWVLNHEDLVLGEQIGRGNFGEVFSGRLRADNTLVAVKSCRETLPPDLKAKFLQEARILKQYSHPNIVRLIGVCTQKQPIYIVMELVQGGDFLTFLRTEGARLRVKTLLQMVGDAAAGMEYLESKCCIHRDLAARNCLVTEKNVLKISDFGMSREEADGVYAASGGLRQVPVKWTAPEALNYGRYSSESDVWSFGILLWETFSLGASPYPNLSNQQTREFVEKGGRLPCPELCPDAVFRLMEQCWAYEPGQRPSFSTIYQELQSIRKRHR
Sequence of Fyn (P06241 whole entry, looked up): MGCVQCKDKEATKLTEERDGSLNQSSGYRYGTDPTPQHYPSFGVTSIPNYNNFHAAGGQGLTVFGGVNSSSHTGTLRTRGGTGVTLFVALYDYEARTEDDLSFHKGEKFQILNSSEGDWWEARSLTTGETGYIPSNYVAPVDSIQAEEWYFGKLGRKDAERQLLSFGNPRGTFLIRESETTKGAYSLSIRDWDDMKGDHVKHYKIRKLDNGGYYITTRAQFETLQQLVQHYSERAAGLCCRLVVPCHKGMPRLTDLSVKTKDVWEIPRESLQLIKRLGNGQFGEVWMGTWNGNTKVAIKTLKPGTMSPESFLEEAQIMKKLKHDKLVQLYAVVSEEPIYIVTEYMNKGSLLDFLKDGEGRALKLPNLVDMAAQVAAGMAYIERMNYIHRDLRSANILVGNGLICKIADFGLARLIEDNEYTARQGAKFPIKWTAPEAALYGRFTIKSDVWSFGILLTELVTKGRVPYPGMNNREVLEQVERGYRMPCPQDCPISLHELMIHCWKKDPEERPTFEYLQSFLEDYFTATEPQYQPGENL
Sequence of MERTK (Q12866 whole entry, looked up): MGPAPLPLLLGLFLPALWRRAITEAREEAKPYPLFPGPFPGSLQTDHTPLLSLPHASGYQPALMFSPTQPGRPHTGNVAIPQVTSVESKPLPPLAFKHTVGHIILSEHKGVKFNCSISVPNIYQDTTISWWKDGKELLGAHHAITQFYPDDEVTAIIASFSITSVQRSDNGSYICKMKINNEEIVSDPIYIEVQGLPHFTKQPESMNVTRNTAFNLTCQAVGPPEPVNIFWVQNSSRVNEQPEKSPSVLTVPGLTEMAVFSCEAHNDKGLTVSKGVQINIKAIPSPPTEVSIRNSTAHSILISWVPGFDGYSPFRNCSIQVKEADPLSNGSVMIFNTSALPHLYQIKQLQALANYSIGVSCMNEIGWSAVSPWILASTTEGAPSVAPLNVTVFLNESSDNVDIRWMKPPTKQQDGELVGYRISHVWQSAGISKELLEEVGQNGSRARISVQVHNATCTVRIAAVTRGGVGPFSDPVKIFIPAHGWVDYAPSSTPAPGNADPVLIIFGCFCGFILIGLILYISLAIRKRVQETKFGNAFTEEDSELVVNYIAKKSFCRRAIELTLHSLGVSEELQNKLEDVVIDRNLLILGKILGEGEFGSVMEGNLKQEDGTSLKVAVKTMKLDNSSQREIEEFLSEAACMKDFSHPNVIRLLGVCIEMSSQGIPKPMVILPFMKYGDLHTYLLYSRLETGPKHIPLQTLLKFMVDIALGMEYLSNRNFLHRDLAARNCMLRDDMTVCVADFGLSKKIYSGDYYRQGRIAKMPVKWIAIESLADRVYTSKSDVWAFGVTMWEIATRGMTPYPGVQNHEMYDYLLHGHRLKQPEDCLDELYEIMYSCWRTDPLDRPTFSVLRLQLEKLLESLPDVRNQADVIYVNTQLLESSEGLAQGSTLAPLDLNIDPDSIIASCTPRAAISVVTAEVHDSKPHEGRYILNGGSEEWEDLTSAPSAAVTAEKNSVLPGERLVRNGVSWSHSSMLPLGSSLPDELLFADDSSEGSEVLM
Sequence of FGFR1 (P11362 whole entry, looked up): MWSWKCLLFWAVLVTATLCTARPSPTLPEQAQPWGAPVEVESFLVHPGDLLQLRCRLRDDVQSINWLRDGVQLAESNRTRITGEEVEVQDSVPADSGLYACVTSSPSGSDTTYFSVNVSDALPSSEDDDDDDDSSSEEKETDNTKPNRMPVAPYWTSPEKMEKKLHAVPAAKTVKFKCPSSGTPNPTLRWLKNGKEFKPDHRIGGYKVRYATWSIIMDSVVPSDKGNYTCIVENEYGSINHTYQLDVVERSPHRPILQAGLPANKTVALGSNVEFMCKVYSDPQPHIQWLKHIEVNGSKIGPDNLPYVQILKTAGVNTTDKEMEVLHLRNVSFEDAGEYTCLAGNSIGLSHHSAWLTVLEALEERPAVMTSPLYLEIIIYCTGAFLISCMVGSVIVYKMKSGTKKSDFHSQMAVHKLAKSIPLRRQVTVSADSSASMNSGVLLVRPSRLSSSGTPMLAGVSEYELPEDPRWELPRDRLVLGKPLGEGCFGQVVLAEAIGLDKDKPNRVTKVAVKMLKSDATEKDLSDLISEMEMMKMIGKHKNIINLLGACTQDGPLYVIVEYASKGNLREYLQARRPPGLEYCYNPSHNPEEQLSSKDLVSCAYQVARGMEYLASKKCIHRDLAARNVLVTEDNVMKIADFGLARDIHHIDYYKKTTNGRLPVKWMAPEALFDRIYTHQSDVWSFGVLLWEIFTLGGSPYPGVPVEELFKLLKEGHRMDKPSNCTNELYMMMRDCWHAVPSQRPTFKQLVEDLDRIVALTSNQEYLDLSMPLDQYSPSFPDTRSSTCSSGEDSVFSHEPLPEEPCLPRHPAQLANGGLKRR
Sequence of Hck (P08631 whole entry, looked up): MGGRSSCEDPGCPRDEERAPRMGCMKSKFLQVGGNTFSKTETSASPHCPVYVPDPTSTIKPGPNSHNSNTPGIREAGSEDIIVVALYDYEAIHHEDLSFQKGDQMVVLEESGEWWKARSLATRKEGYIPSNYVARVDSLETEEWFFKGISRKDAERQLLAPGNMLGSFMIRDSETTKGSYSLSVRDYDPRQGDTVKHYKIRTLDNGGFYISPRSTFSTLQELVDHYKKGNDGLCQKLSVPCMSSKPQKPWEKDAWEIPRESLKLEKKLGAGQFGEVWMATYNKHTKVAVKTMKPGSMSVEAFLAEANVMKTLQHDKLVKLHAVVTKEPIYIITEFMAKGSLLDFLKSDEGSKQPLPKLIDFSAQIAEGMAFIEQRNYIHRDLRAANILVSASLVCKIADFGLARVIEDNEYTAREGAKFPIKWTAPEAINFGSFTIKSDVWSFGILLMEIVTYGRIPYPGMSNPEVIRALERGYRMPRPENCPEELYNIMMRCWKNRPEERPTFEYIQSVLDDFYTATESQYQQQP

| Sequence | phosphorylation enrichment (EPHB2) | phosphorylation enrichment (Fes) | phosphorylation enrichment (Fyn) | phosphorylation enrichment (Jak2) | phosphorylation enrichment (MERTK) | phosphorylation enrichment (FGFR3) | phosphorylation enrichment (Fer (mouse)) | phosphorylation enrichment (c-Abl (mouse)) | phosphorylation enrichment (FGFR1) | phosphorylation enrichment (AncSZ) | phosphorylation enrichment (c-Src) | phosphorylation enrichment (Hck) | phosphorylation enrichment (EPHB1) | SH2 binding enrichment (SHP2-C SH2) | SH2 binding enrichment (c-Src SH2) | SH2 binding enrichment (Grb2 SH2) |
| --- | --- | --- | --- | --- | --- | --- | --- | --- | --- | --- | --- | --- | --- | --- | --- | --- |
| QKKPRYEIRWK [PDGFRB_Y562] | 0.919 | 1.75 | 0.895 | 1.74 | 1.16 | 2.06 | 1.02 | 1.05 | 0.756 | 1.96 | 0.605 | 0.723 | 0.928 | 3 | 1.64 | 2.77 |
| QLHRKYCLSPR [HJURP_Y445_E444K] | 0.728 | 0.852 | 0.545 | 0.527 | 0.491 | 0.581 | 0.603 | 0.679 | 0.815 | 0.677 | 0.636 | 0.533 | 0.523 | 0.859 | 0.961 | 1.09 |
| QLQTTYPSSDN [MAX_Y115_N114T] | 0.48 | 0.752 | 0.35 | 0.853 | 0.357 | 0.626 | 0.789 | 0.566 | 0.433 | 0.773 | 0.556 | 0.474 | 0.445 | 0.73 | 0.448 | 0.921 |
| QMVDMYASSFM [AVPR2_Y124_G122D_YF] | 0.805 | 1.31 | 1.35 | 1.47 | 0.707 | 0.923 | 0.9 | 1.2 | 0.779 | 1.29 | 2.34 | 1.58 | 0.992 | 0.575 | 0.707 | 1.07 |
| QNTGVYYDLYG [PTPN11_Y62_D61V] | 5.61 | 1.49 | 8.43 | 2.61 | 10.9 | 14.5 | 3.07 | 1.23 | 16.3 | 2 | 7.18 | 7.99 | 6.99 | 0.892 | 4.65 | 1.38 |
| QPGDICHQTWA [GBA_Y244_Y244C] | 0.45 | 1.08 | 0.478 | 0.906 | 0.306 | 0.608 | 0.462 | 0.741 | 0.507 | 0.796 | 0.369 | 0.337 | 0.515 | 0.603 | 0.732 | 0.776 |
| QRALLYEDALF [UNC13D_Y56_YF] | 8.85 | 2.16 | 1.54 | 0.867 | 4.86 | 0.896 | 16.1 | 0.878 | 0.68 | 1.21 | 1.5 | 1.45 | 10.4 | 0.573 | 0.593 | 0.828 |
| QRIYQYIRSRF [DYRK1B_Y273_Q275R] | 0.601 | 1.17 | 0.809 | 0.817 | 1.01 | 0.818 | 0.734 | 1.27 | 0.677 | 0.887 | 1.16 | 1.05 | 0.9 | 0.428 | 0.369 | 0.844 |
| QRKPSYNQLAS [BRCA2_Y71] | 0.53 | 0.53 | 0.399 | 0.598 | 0.392 | 0.642 | 0.244 | 0.471 | 0.543 | 0.449 | 0.415 | 0.345 | 0.344 | 1.14 | 1.06 | 1.59 |
| QRKRAYVEIEF [MAK16_Y282_YF] | 0.594 | 1.42 | 0.655 | 0.723 | 0.643 | 0.785 | 0.48 | 0.631 | 0.617 | 0.926 | 0.63 | 0.398 | 0.838 | 2.48 | 3.17 | 1.55 |
| QRKRAYVEIEY [MAK16_Y282] | 0.463 | 0.752 | 0.585 | 0.73 | 0.416 | 0.663 | 0.441 | 2.01 | 0.623 | 0.696 | 0.68 | 0.672 | 0.362 | 0.718 | 4.61 | 0.675 |
| QRRFVYFFSFL [PTEN_Y176_YF] | 0.61 | 1.46 | 0.656 | 1.15 | 0.618 | 0.908 | 1.91 | 1.12 | 0.573 | 1.6 | 0.567 | 0.57 | 0.563 | 0.821 | 0.642 | 1.13 |
| QTPVLYAMLDH [MPZ_Y220] | 8.88 | 1.02 | 5.21 | 0.845 | 10.7 | 2.84 | 9.39 | 2.67 | 3.44 | 0.853 | 4.54 | 7.14 | 10.7 | 2.71 | 0.922 | 0.837 |
| QWRTKYEMDAI [MYH7_Y1375_T1377M] | 0.4 | 0.964 | 0.773 | 0.519 | 0.384 | 0.843 | 0.365 | 0.5 | 0.58 | 1.12 | 0.344 | 0.561 | 0.479 | 0.522 | 0.549 | 0.891 |
| QWRTKYETDTI [MYH7_Y1375_A1379T] | 0.797 | 1.49 | 0.489 | 1.56 | 0.414 | 0.757 | 0.5 | 0.798 | 0.473 | 0.819 | 0.56 | 0.624 | 0.616 | 0.735 | 0.485 | 0.769 |
| RALCHYYKLNI [ETV6_Y401_R399C] | 1.16 | 1.99 | 0.947 | 6.35 | 3.95 | 5.19 | 1.29 | 2.78 | 9.12 | 1.88 | 2.63 | 1.59 | 1.09 | 1.23 | 1.45 | 1.74 |
| RAYSWYQHQRA [NDST1_Y714] | 0.716 | 1.16 | 0.242 | 1.06 | 0.619 | 0.792 | 0.641 | 0.964 | 0.472 | 1.03 | 0.527 | 0.582 | 0.538 | 1.79 | 1.18 | 1.58 |

| Sequence | phosphorylation enrichment (EPHB2) | phosphorylation enrichment (Fes) | phosphorylation enrichment (Fyn) | phosphorylation enrichment (Jak2) | phosphorylation enrichment (MERTK) | phosphorylation enrichment (FGFR3) | phosphorylation enrichment (Fer (mouse)) | phosphorylation enrichment (c-Abl (mouse)) | phosphorylation enrichment (FGFR1) | phosphorylation enrichment (AncSZ) | phosphorylation enrichment (c-Src) | phosphorylation enrichment (Hck) | phosphorylation enrichment (EPHB1) | SH2 binding enrichment (SHP2-C SH2) | SH2 binding enrichment (c-Src SH2) | SH2 binding enrichment (Grb2 SH2) |
| --- | --- | --- | --- | --- | --- | --- | --- | --- | --- | --- | --- | --- | --- | --- | --- | --- |
| REDIFYTSKLW [AKR1C2_Y81] | 0.796 | 1.12 | 0.692 | 0.947 | 0.645 | 1.01 | 0.543 | 0.607 | 0.592 | 1.07 | 0.438 | 0.77 | 0.978 | 0.838 | 0.598 | 1.04 |
| REQREYLDQLN [CCDC88B_Y1277] | 0.663 | 0.984 | 0.624 | 0.578 | 0.433 | 0.66 | 0.532 | 2.21 | 0.693 | 0.917 | 0.521 | 0.604 | 0.666 | 0.47 | 0.425 | 0.589 |
| REVVNYVQKRN [RMI1_Y450] | 0.595 | 1.08 | 0.541 | 0.598 | 0.869 | 0.521 | 0.554 | 0.975 | 0.36 | 0.931 | 0.582 | 0.696 | 0.622 | 0.787 | 0.632 | 1.1 |
| RFLERDIYNRE [HLA-DPB1_Y57_Y57D] | 1.48 | 2.16 | 5.19 | 0.764 | 1.26 | 2.92 | 1.85 | 0.787 | 1.18 | 2.71 | 1.8 | 10.7 | 1.74 | 0.882 | 0.877 | 1.08 |
| RFLERYIFNRQ [HLA-DPB1_Y57_E62Q_YF] | 0.29 | 1.63 | 0.535 | 1.71 | 0.756 | 0.642 | 0.75 | 1.36 | 0.448 | 1.57 | 0.893 | 0.678 | 0.603 | 0.833 | 0.577 | 0.901 |
| RFLERYIYNPE [HLA-DPB1_Y57_R61P] | 0.675 | 1.15 | 1.75 | 0.935 | 1.5 | 0.671 | 0.636 | 0.68 | 0.55 | 1.1 | 3.08 | 2.11 | 0.755 | 1.28 | 0.966 | 1.17 |
| RFLRGYQQDAF [HLA-A_Y137_R138Q_YF] | 0.518 | 0.684 | 0.685 | 0.965 | 0.558 | 0.677 | 0.518 | 0.81 | 0.803 | 1.11 | 0.603 | 0.693 | 0.796 | 0.581 | 0.374 | 0.58 |
| RFVTRSIFNRE [HLA-DQB1_Y62_Y62S_YF] | 0.718 | 0.827 | 0.498 | 0.723 | 0.577 | 0.711 | 0.652 | 0.402 | 0.472 | 1.14 | 0.578 | 0.632 | 0.61 | 0.588 | 0.39 | 0.72 |
| RGNMFYENSFA [EGFR_Y113_YF] | 0.663 | 0.836 | 0.997 | 1.01 | 0.727 | 0.744 | 2.57 | 0.533 | 0.785 | 1.21 | 0.922 | 0.479 | 0.483 | 1.26 | 3.16 | 18.9 |
| RHCSGYVLIAM [EFR3A_Y73_R70C] | 0.403 | 0.879 | 0.376 | 0.846 | 0.268 | 0.669 | 0.501 | 0.575 | 0.596 | 0.885 | 0.517 | 0.472 | 0.51 | 1.05 | 1.05 | 1.01 |
| RIGRKYKKVRF [F8_Y442] | 0.511 | 0.341 | 0.36 | 0.432 | 0.351 | 0.364 | 0.298 | 0.298 | 0.352 | 0.47 | 0.385 | 0.356 | 0.338 | 0.275 | 0.254 | 0.488 |
| RKEAQYMLENE [SLC16A6_Y224] | 0.523 | 1.32 | 0.642 | 1.22 | 0.619 | 0.827 | 0.445 | 0.997 | 0.503 | 1.52 | 0.899 | 0.803 | 0.605 | 0.791 | 0.703 | 0.8 |
| RLAKTYKTTLE [ALB_Y377_E378K] | 0.509 | 0.632 | 0.253 | 0.72 | 0.365 | 0.446 | 0.624 | 1.18 | 0.513 | 0.564 | 0.441 | 0.388 | 0.324 | 0.669 | 0.672 | 1.01 |
| RLGDLYEEEMR [VIM_Y150] | 0.691 | 1.14 | 0.487 | 0.938 | 0.335 | 0.487 | 0.377 | 0.585 | 0.48 | 0.72 | 0.425 | 0.379 | 0.615 | 0.567 | 0.848 | 0.876 |
| RLGNQHVNVMN [SLC3A1_Y461_Y461H] | 0.612 | 1.09 | 0.627 | 1.09 | 0.53 | 0.691 | 0.504 | 0.947 | 0.567 | 0.793 | 0.717 | 0.505 | 0.694 | 0.762 | 0.429 | 0.987 |
| RLLVVYHWTQR [HBD_Y36_P37H] | 0.514 | 1.58 | 0.46 | 1.17 | 0.666 | 0.75 | 0.659 | 1.32 | 0.458 | 1.42 | 0.566 | 0.85 | 0.785 | 1.27 | 1.27 | 1.49 |
